In patent WO2007088823A1 (dated 2007):

Target: T1, Recombinant Human TNF-α (Strathmann Biotec AG, hTNFa-1000, Lot 090590) (human, UniProt P01375 77-233)
T1 construct: Bought protein; runs at 17.0 kDa on SDS-PAGE; also called cachectin
Assay: ELISA, hybridoma culture supernatant on coated proteins (cross-reactivity test)

T1 sequence (P01375 77-233 limits assumed): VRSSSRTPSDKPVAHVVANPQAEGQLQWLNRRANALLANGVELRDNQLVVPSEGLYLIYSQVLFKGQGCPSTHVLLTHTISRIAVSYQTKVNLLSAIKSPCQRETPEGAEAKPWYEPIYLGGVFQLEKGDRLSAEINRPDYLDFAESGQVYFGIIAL

B1: ETNF-6 antibody (antibody, V domains shown)
VH: EVQLQQSGPELVKPGASVKISCKASGYSFTAFYMHWVKQSHVKSLEWIGRINPYNGATSYNQNFKAKASLTVDKSSSTAYMELHSLTSEDSAVYYCARSEDWDKTMDYWGQGTSVTVS
VL: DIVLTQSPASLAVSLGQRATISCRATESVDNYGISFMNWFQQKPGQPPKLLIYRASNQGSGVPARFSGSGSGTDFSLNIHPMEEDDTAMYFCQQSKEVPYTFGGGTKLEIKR
notes: Mouse monoclonal antibody, tested as hybridoma culture supernatant; also called ETNF 6 monoclonal antibody
  binding result: binds
